Values of other authors in PMC6611588, “Quantitative high-throughput screening assays for the discovery and development of SIRPα-CD47 interaction inhibitors” (PLoS ONE, 2019).
Values joined by “and” are separate entries in the source; they are usually repeats but may differ in a detail not shown here. Identical values can stand only once.

Target: CD47 (Homo sapiens) (UniProt Q08722)
Details: cited from earlier work

CD47 (Homo sapiens), sequence (Q08722 19-323): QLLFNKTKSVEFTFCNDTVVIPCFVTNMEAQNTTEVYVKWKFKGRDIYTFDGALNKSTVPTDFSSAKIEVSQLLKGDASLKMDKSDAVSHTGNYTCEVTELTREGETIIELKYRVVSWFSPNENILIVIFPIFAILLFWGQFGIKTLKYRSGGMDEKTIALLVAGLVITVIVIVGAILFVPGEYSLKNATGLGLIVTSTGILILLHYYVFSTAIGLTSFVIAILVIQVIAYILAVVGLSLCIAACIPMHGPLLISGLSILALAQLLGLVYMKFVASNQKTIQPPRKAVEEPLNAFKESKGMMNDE
SIRPα, sequence (P78324 31-373): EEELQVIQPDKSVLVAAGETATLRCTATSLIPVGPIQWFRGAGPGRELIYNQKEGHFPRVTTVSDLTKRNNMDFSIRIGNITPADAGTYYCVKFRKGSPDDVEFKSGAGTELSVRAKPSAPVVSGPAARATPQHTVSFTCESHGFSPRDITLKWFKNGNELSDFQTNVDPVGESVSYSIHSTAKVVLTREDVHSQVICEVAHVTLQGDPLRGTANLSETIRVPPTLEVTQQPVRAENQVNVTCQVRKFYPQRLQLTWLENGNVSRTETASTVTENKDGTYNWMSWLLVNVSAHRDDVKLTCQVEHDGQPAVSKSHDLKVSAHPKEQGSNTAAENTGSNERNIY

In the case of SIRPα (from UniProt P78324), the Kd is listed as 300 nM and 279 nM.
